Ends that are not written are not given here.
What was measured:
[1] = target: p38 protein fused with an N-terminal myc epitope, expressed from pcDNA3-myc-P38 (human) (UniProt Q13155); assay: cell-based or functional assay
[2] = target: T1, p38 protein (product of the human gene JTV1) fused to the transactivating domain of GAL4, from library … (yeast; human, UniProt Q13155 1-320, limits assumed); assay: yeast two-hybrid, b-Gal activity assay in strain L40
T1 construct: also called plasmid isolated during the screening of the two-hybrid library; fragment corresponding to the p38 protein
T1 sequence: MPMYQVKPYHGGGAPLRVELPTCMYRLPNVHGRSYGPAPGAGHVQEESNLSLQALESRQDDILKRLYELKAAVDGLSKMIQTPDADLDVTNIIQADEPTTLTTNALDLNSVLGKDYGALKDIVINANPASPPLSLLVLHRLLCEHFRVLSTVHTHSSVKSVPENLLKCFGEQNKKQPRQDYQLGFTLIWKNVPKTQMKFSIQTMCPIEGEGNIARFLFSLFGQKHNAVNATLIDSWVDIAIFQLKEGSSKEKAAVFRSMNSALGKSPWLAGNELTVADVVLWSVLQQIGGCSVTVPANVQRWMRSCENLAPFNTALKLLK
Method: A sheet of nitrocellulose is pre-placed on the Petri dish containing the separated yeast clones. This sheet is then immersed in liquid nitrogen for 30 seconds in order to rupture the yeasts and thus to release the b-galactosidase activity. After thawing, the sheet of nitrocellulose is placed, colonies facing upwards, in another Petri dish containing a Whatman paper presoaked in 1.5 ml of PBS solution (60 mM Na2HPO4, 40 mM NaH2PO4, 10 mM KCl, 1 mM MgSO4, pH 7) containing 15 μl of X-Gal (5-bromo-4-chloro-3-indolyl-b-D-galactoside) containing 40 mg/ml of N,N-dimethylformamide. The dish is then placed in an incubator at 37° C. The assay is deemed positive when the colonies on the membrane turn blue after 12 hours.
In order to determine the specificity of interaction between the fragment corresponding to the p38 protein and the central region of parkin, we carried out a two-hybrid test for specific interaction with other, non-relevant proteins. To carry out this test, we transformed the L40 strain with the control plasmids plex9-cAPP or pLex9-HaRasVal12 in place of the plasmid pLex9-Parkin (135-290), encoding, respectively, the cytoplasmic domain of APP or the HaRasVal12 protein, which are fused to the DNA-binding domain of LexA and with the plasmid isolated during the screening of the two-hybrid library. […]

“human parkin stably overexpressed in the SH-SY5Y-VI clone (from UniProt O60260 1-465) (enzyme)” gave a proportion of transfected cells exhibiting p38 aggregates [1] of 8%.

B1: cytoplasmic domain of the APP protein fused to LexA, expressed from pLex9-cAPP (other, UniProt P05067 723-770, looked up)
chain: LKKKQYTSIHHGVVEVDAAVTPEERHLSKMQQNGYENPTYKFFEQMQN
modifications: also: fused to LexA
notes: domain: cytoplasmic domain; Control bait in the two-hybrid specificity test; also called pLex-cAPP; not shown: bacterial repressor LexA as encoded by vector pLex9 (pBTM116)
B1: no binding [2].
